Results as given in patent publication US20230139516A1 (CEDARS SINAI MEDICAL CENTER, published 2023).

Tests used:
c-Myc = target: T1, c-Myc (human, UniProt P01106-1 1-439, limits assumed); test: PLA of endogenous proteins in HEK293T cells (FIG. 21B)
T1 construct: also called c-Myc oncoprotein

[1] = target: T2, receptor-interacting protein kinase 2 (RIPK2), endogenous (human, UniProt O43353 1-540); test: PLA of endogenous proteins in HEK293T and parental PC cells (FIG. 20A-B)
T2 construct: Endogenous protein detected in cells with anti-RIPK2 antibodies (PLA, IP)

[2] = target: T3, 3×FLAG-tagged RIPK2 (RIPK2m4 with C-terminal 3×FLAG tag) (human, UniProt O43353 1-540); test: IP of RIPK2 complexes, label-free MS (heatmap and LFQ histogram, FIG. 5A-B)
T3 construct: The same label (3×Flag-tagged RIPK2, expressed in HeLa cells) is the enzyme of the in vitro kinase assay; also called RIPK2-Flag; RIPK2m4-3×FLAG; not shown: 3×FLAG tag fused to the C-terminus
T3 sequence (O43353 whole entry, the tested form may be a part): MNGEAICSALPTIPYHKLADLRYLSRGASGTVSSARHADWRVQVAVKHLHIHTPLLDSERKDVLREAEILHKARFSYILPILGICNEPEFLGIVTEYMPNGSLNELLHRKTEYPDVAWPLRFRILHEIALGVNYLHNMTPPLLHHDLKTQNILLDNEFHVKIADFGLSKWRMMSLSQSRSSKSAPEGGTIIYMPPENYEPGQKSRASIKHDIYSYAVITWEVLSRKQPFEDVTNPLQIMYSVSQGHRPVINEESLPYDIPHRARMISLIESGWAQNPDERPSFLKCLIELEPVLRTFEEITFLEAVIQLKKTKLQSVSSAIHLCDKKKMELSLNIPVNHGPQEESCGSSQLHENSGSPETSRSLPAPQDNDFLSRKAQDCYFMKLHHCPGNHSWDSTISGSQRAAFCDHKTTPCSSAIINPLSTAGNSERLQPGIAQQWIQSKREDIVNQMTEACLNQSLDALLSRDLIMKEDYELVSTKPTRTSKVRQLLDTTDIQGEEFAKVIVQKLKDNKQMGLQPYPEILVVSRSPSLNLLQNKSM

T2 sequence (O43353 whole entry): as the sequence (O43353 whole entry, the tested form may be a part) above
T1 sequence (P01106 16-454 limits assumed): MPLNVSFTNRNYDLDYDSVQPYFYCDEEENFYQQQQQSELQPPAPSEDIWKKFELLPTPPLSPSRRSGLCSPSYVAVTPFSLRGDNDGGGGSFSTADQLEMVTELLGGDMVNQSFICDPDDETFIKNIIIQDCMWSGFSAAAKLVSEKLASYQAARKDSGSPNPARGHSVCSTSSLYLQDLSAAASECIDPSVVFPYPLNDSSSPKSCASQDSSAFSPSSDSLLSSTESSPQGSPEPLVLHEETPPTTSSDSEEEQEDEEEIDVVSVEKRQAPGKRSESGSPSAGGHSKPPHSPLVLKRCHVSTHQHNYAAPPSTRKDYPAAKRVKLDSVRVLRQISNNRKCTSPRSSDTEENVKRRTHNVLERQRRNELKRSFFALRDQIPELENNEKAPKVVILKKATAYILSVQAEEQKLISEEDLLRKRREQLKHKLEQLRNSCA

binding result (c-Myc): binds
binding result [1]: binds
binding result [2]: binds
B1: MKK7 (MAP2K7), endogenous (enzyme, human, UniProt O14733 2-419, looked up)
chain: AASSLEQKLSRLEAKLKQENREARRRIDLNLDISPQRPRPTLQLPLANDGGSRSPSSESSPQHPTPPARPRHMLGLPSTLFTPRSMESIEIDQKLQEIMKQTGYLTIGGQRYQAEINDLENLGEMGSGTCGQVWKMRFRKTGHVIAVKQMRRSGNKEENKRILMDLDVVLKSHDCPYIVQCFGTFITNTDVFIAMELMGTCAEKLKKRMQGPIPERILGKMTVAIVKALYYLKEKHGVIHRDVKPSNILLDERGQIKLCDFGISGRLVDSKAKTRSAGCAAYMAPERIDPPDPTKPDYDIRADVWSLGISLVELATGQFPYKNCKTDFEVLTKVLQEEPPLLPGHMGFSGDFQSFVKDCLTKDHRKRPKYNKLLEHSFIKRYETLEVDVASWFKDVMAKTESPRTSGVLSQPHLPFFR
